Data on 91 variants can be found in IntAct's records for PubMed 29039417.

First the molecules themselves.
B1: BBSome complex member BBS2 (Homo sapiens), Q9BXC9 (parent)
chain: MLLPVFTLKLRHKISPRMVAIGRYDGTHPCLAAATQTGKVFIHNPHTRNQHVSASRVFQSPLESDVSLLSINQAVSCLTAGVLNPELGYDALLVGTQTNLLAYDVYNNSDLFYREVADGANAIVLGTLGDISSPLAIIGGNCALQGFNHEGSDLFWTVTGDNVNSLALCDFDGDGKKELLVGSEDFDIRVFKEDEIVAEMTETEIVTSLCPMYGSRFGYALSNGTVGVYDKTSRYWRIKSKNHAMSIHAFDLNSDGVNELITGWSNGKVDARSDRTGEVIFKDNFSSAIAGVVEGDYRMDGHIQLICCSVDGEIRGYLPGTAEMRGNLMDTSAEQDLIRELSQKKQNLLLELRNYEENAKAELASPLNEADGHRGIIPANTRLHTTLSVSLGNETQTAHTELRISTSNDTIIRAVLIFAEGIFTGESHVVHPSIHNLSSSICIPIVPPKDVPVDLHLKAFVGYRSSTQFHVFESTRQLPRFSMYALTSLDPASEPISYVNFTIAERAQRVVVWLGQNFLLPEDTHIQNAPFQVCFTSLRNGGHLHIKIKLSGEITINTDDIDLAGDIIQSMASFFAIEDLQVEADFPVYFEELRKVLVKVDEYHSVHQKLSADMADHSNLIRSLLVGAEDARLMRDMKTMKSRYMELYDLNRDLLNGYKIRCNNHTELLGNLKAVNQAIQRAGRLRVGKPKNQVITACRDAIRSNNINTLFKIMRVGTASS
partner: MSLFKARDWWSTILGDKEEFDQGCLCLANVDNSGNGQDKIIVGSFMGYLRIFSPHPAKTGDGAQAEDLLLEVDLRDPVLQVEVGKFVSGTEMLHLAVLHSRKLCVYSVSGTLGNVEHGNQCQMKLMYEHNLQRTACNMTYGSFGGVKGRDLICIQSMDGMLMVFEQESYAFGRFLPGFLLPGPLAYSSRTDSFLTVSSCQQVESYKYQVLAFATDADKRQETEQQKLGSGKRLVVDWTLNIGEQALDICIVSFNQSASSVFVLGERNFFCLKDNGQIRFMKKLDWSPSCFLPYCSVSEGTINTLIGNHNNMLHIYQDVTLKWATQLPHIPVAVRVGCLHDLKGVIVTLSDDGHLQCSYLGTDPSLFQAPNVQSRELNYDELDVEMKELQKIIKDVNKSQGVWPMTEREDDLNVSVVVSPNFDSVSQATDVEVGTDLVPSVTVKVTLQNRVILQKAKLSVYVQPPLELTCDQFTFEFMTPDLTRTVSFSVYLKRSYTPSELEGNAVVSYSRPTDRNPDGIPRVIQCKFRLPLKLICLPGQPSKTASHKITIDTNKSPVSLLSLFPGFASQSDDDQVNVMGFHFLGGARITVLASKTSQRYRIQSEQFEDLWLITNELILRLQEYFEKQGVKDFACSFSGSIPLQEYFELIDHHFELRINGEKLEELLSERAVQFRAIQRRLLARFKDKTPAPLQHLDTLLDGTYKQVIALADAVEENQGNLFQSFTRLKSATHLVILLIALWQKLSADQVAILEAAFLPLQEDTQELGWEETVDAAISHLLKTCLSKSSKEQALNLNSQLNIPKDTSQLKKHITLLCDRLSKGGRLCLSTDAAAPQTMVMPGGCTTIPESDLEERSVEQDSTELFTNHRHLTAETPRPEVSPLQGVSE

In the experiment the parent is B1. The settings on record: with pthb1_human BBS9, Q3SYG4.
Turning to S605A, the “effect of a mutation on the interaction” value is reported as “with no effect”. Regarding S605K, the “effect of a mutation on the interaction” value is “with no effect”. Consider L550K, for which the “effect of a mutation on the interaction” value is reported as “with no effect”. In the case of L550A, the “effect of a mutation on the interaction” value is recorded as “with no effect”.

Take L550E: the “effect of a mutation on the interaction” value was “with no effect”. With Y603K, the “effect of a mutation on the interaction” value was “with no effect”.

As to Y603A, the “effect of a mutation on the interaction” value was “with no effect”.

Y603E: the “effect of a mutation on the interaction” value is “with no effect”.

Consider D560K, for which the “effect of a mutation on the interaction” value is on record as “with no effect”. To D560A belongs “disrupting interaction strength”; to D560E, “with no effect”.

Regarding V582K, the “effect of a mutation on the interaction” value is “with no effect”. For the variant V582A, the “effect of a mutation on the interaction” value is “with no effect”.

As for V582E, the “effect of a mutation on the interaction” value is on record as “with no effect”. The result for S570A reads “with no effect”. The result for S570K reads “with no effect”; that for S570E, “with no effect”; that for S570L, “disrupting interaction strength”. The result for I548K reads “with no effect”. Regarding I548E, the “effect of a mutation on the interaction” value is “with no effect”. The result for I548A reads “with no effect”; that for M571A, “with no effect”. Consider M571E, for which the “effect of a mutation on the interaction” value is “with no effect”.

Consider M571K, for which the “effect of a mutation on the interaction” value was “with no effect”. For the variant D585E, the “effect of a mutation on the interaction” value is given as “with no effect”. As for D585K, the “effect of a mutation on the interaction” value is on record as “with no effect”.

Regarding D585A, the “effect of a mutation on the interaction” value was “with no effect”.

Consider I567K, for which the “effect of a mutation on the interaction” value is recorded as “with no effect”. With I567E, the “effect of a mutation on the interaction” value is “with no effect”. The result for I567A reads “with no effect”; that for Q569K, “with no effect”; that for Q569E, “with no effect”. For the variant Q569A, the “effect of a mutation on the interaction” value was “with no effect”. To K595A belongs “with no effect”; to K595E, “with no effect”. Regarding K549E, the “effect of a mutation on the interaction” value was “with no effect”.

For the variant K549A, the “effect of a mutation on the interaction” value was “with no effect”.

For the variant E553K, the “effect of a mutation on the interaction” value is listed as “with no effect”.

For the variant E553A, the “effect of a mutation on the interaction” value is “with no effect”. For E602A, the “effect of a mutation on the interaction” value is “with no effect”. Take E602K: the “effect of a mutation on the interaction” value is reported as “with no effect”. For D559E, the “effect of a mutation on the interaction” value was “with no effect”. In the case of D559A, the “effect of a mutation on the interaction” value is “with no effect”. Turning to D559K, the “effect of a mutation on the interaction” value was “with no effect”. As to E578K, the “effect of a mutation on the interaction” value is “with no effect”. Turning to E578A, the “effect of a mutation on the interaction” value is listed as “with no effect”. Take A584K: the “effect of a mutation on the interaction” value was “with no effect”. For A584E, the “effect of a mutation on the interaction” value was “with no effect”. As to A564K, the “effect of a mutation on the interaction” value was “with no effect”.

Regarding A564E, the “effect of a mutation on the interaction” value is “with no effect”. Take I568A: the “effect of a mutation on the interaction” value is on record as “with no effect”. For the variant I568K, the “effect of a mutation on the interaction” value is reported as “with no effect”. With V600E, the “effect of a mutation on the interaction” value is “with no effect”.

Regarding V600A, the “effect of a mutation on the interaction” value was “with no effect”. As to V600K, the “effect of a mutation on the interaction” value is “with no effect”. To I556E belongs “with no effect”; to I556A, “with no effect”; to I556K, “with no effect”. Regarding Y589K, the “effect of a mutation on the interaction” value is given as “with no effect”.

Regarding Y589A, the “effect of a mutation on the interaction” value is “with no effect”.

In the case of Y589E, the “effect of a mutation on the interaction” value is given as “with no effect”.

Regarding P587K, the “effect of a mutation on the interaction” value is “with no effect”. P587E: the “effect of a mutation on the interaction” value was “with no effect”. As for P587A, the “effect of a mutation on the interaction” value was “with no effect”.

In the case of D566E, the “effect of a mutation on the interaction” value was “with no effect”. Take D566A: the “effect of a mutation on the interaction” value was “with no effect”.

For the variant D566K, the “effect of a mutation on the interaction” value was “with no effect”. Take E583K: the “effect of a mutation on the interaction” value is given as “with no effect”. For E583A, the “effect of a mutation on the interaction” value is reported as “with no effect”. For G552E, the “effect of a mutation on the interaction” value was “disrupting interaction strength”. To G552A belongs “with no effect”; to G552K, “with no effect”.

Regarding A576K, the “effect of a mutation on the interaction” value is “with no effect”. A576E: the “effect of a mutation on the interaction” value is “with no effect”. L593A: the “effect of a mutation on the interaction” value is “with no effect”. Consider L593E, for which the “effect of a mutation on the interaction” value is recorded as “with no effect”.

With L593K, the “effect of a mutation on the interaction” value is on record as “with no effect”. For T555K, the “effect of a mutation on the interaction” value is given as “with no effect”. The result for T555P reads “disrupting interaction strength”; that for T555H, “disrupting interaction strength”.

T555A: the “effect of a mutation on the interaction” value is “with no effect”. The result for T555E reads “with no effect”. With A572E, the “effect of a mutation on the interaction” value was “with no effect”. As to A572K, the “effect of a mutation on the interaction” value is on record as “with no effect”. Consider L544K, for which the “effect of a mutation on the interaction” value was “with no effect”. The result for L544S reads “disrupting interaction strength”; that for E592K, “with no effect”; that for E592A, “with no effect”.

Consider H607K, for which the “effect of a mutation on the interaction” value is “with no effect”.

As to H607A, the “effect of a mutation on the interaction” value was “with no effect”. With H607E, the “effect of a mutation on the interaction” value is given as “with no effect”.
